In article doi:10.1101/864769 one finds Kd data, which are given here for one substance.

The target of this test is CP-capped actin filament barbed ends (not stated | chicken) (UniProt P60709). The test can be described thus: single-filament uncapping assay.

As for “mouse twinfilin-1 (from UniProt Q91YR1 1-350) (natural protein)”, the dissociation constant Kd amounted to 300 nM.
